Substrate in series [1]: Cc1cc(=O)oc2cc(NC(=O)[C@H](CCCNC(=N)N)NC(=O)[C@H](C)NC(=O)[C@H](CCC(=O)OCc3ccccc3)NC(=O)OC(C)(C)C)ccc12
In words: purified protein, by the assay type.

Substrate in series [2]: Cc1cc(=O)oc2cc(NC(=O)[C@H](CCCNC(=N)N)NC(=O)[C@H](Cc3ccccc3)NC(=O)OCc3ccccc3)ccc12
Kind of series: purified protein, by the assay type.

Substrate in series [3]: Cc1cc(=O)oc2cc(NC(=O)[C@H](CCCNC(=N)N)NC(=O)[C@H](Cc3ccccc3)NC(=O)[C@@H]3CCCN3)ccc12
In words: purified protein, by the assay type.

Substrate in series [4]: Cc1cc(=O)oc2cc(NC(=O)[C@H](CCCNC(=N)N)NC(=O)[C@H](C)NC(=O)[C@H](CCC(=O)OCc3ccccc3)NC(=O)OC(C)(C)C)ccc12
Kind of series: Kinetic parameters for MCA-containing peptide substrates, EP-1(WT). The settings on record: other: EP-1(WT). It counts as biochemical, Japanese Medaka (Oryzias latipes).

Substrate in series [5]: Cc1cc(=O)oc2cc(NC(=O)[C@H](CCCNC(=N)N)NC(=O)[C@H](Cc3ccccc3)NC(=O)OCc3ccccc3)ccc12
The description is as above. It counts as biochemical, Japanese Medaka (Oryzias latipes). The settings on record: other: EP-1(WT).

Substrate in series [6]: Cc1cc(=O)oc2cc(NC(=O)[C@H](CCCNC(=N)N)NC(=O)[C@H](Cc3ccccc3)NC(=O)[C@@H]3CCCN3)ccc12
The series is described as above. It counts as biochemical, Japanese Medaka (Oryzias latipes). The following applies: other: EP-1(WT).

Substrate in series [7]: Cc1cc(=O)oc2cc(NC(=O)[C@H](CCCNC(=N)N)NC(=O)[C@H](C)NC(=O)[C@H](CCC(=O)OCc3ccccc3)NC(=O)OC(C)(C)C)ccc12
In words: Kinetic parameters for MCA-containing peptide substrates, porcine EP. The settings on record: other: Porcine. It counts as biochemical.

Substrate in series [8]: Cc1cc(=O)oc2cc(NC(=O)[C@H](CCCNC(=N)N)NC(=O)[C@H](Cc3ccccc3)NC(=O)OCc3ccccc3)ccc12
The description is as above. It counts as biochemical. The following applies: other: Porcine.

Substrate in series [9]: Cc1cc(=O)oc2cc(NC(=O)[C@H](CCCNC(=N)N)NC(=O)[C@H](Cc3ccccc3)NC(=O)[C@@H]3CCCN3)ccc12
Described as above. It counts as biochemical. The settings on record: other: Porcine.

This note sets out measurements from US8013137B2, “Modified enteropeptidase protein” (National University Corporation Hokkaido University, priority 2006, dated 2011).

B1: medaka EP-1 enteropeptidase serine protease domain (parent SEQ ID NO: 2), variant P193E (Oryzias latipes; P970E) (protein)
chain: CGQRQVYNSKENNGVPRVVGGVNAEKGAWPWMVSLHWRGRHGCGASLIGRDWLLTAAHCVYGKNTHLQYWSAVLGLHAQSSMNSQEVQIRQVDRIIINKNYNRRTKEADIAMMHLQQPVNFTEWVLPVCLASEDQHFPAGRRCFIAGWGRDAEGGSLPDILQEAEVPLVDQDECQRLLPEYTFTSSMLCAGYEEGGVDSCQGDSGGPLMCLEDARWTLIGVTSFGVGCGRPERPGAYARVSAFTSWIAETRRSSFSDLD
Usually Km stands for the substrate concentration at which the rate is half of its maximum. What is called kcat is the number of substrate molecules converted per active site and unit of time at saturation. What is called kcat/Km is the turnover number divided by the Michaelis constant. In the case of B1, in series [1] (other: P193E), the Km was 200 µM, the kcat is 0.0383 s⁻¹ and the kcat/Km worked out at 200 M⁻¹ s⁻¹. In series [2] (other: P193E), the Km is 200 µM, the kcat was found to be 0.0283 s⁻¹ and the kcat/Km was 150 M⁻¹ s⁻¹. For the same protein, in [3] (other: P193E), the Km was found to be 1000 µM, the kcat stood at 0.45 s⁻¹ and the kcat/Km was determined as 450 M⁻¹ s⁻¹.

B2: medaka EP-1 enteropeptidase serine protease domain (parent SEQ ID NO: 2), variant K63R (Oryzias latipes; K840R) (protein)
chain: CGQRQVYNSKENNGVPRVVGGVNAEKGAWPWMVSLHWRGRHGCGASLIGRDWLLTAAHCVYGRNTHLQYWSAVLGLHAQSSMNSQEVQIRQVDRIIINKNYNRRTKEADIAMMHLQQPVNFTEWVLPVCLASEDQHFPAGRRCFIAGWGRDAEGGSLPDILQEAEVPLVDQDECQRLLPEYTFTSSMLCAGYPEGGVDSCQGDSGGPLMCLEDARWTLIGVTSFGVGCGRPERPGAYARVSAFTSWIAETRRSSFSDLD
Turning to B2, in series [1] (other: K63R), the Km worked out at 1200 µM, the kcat was 0.2 s⁻¹ and the kcat/Km was found to be 167 M⁻¹ s⁻¹. Moreover, in series [2] (other: K63R), the Km was 100 µM, the kcat is 0.0233 s⁻¹ and the kcat/Km came out at 233 M⁻¹ s⁻¹. In series [3] (other: K63R), the Km was found to be 1100 µM, the kcat is 0.183 s⁻¹ and the kcat/Km is 167 M⁻¹ s⁻¹.

B3: medaka EP-1 enteropeptidase serine protease domain (parent SEQ ID NO: 2), variant T105E (Oryzias latipes; T882E) (protein)
chain: VVGGVNAEKGAWPWMVSLHWRGRHGCGASLIGRDWLLTAAHCVYGKNTHLQYWSAVLGLHAQSSMNSQEVQIRQVDRIIINKNYNRREKEADIAMMHLQQPVNFTEWVLPVCLASEDQHFPAGRRCFIAGWGRDAEGGSLPDILQEAEVPLVDQDECQRLLPEYTFTSSMLCAGYPEGGVDSCQGDSGGPLMCLEDARWTLIGVTSFGVGCGRPERPGAYARVSAFTSWIAETRRSSFSDLD
As to B3, the Km in series [1] (other: T105E) was determined as 1300 µM; in series [2] (other: T105E), 100 µM; in series [3] (other: T105E), 1300 µM. The kcat in series [1] (other: T105E) was found to be 0.183 s⁻¹; in [2] (other: T105E), 0.0333 s⁻¹; in series [3] (other: T105E) it was 0.267 s⁻¹. For the same protein, the kcat/Km worked out at 150 M⁻¹ s⁻¹ in series [1] (other: T105E), 333 M⁻¹ s⁻¹ in series [2] (other: T105E) and 200 M⁻¹ s⁻¹ in series [3] (other: T105E).

B4: medaka EP-1 enteropeptidase serine protease domain (parent SEQ ID NO: 2), variant E173A, SEQ ID NO: 4 (Oryzias latipes; E950A) (protein)
chain: VVGGVNAEKGAWPWMVSLHWRGRHGCGASLIGRDWLLTAAHCVYGKNTHLQYWSAVLGLHAQSSMNSQEVQIRQVDRIIINKNYNRRTKEADIAMMHLQQPVNFTEWVLPVCLASEDQHFPAGRRCFIAGWGRDAEGGSLPDILQEAEVPLVDQDACQRLLPEYTFTSSMLCAGYPEGGVDSCQGDSGGPLMCLEDARWTLIGVTSFGVGCGRPERPGAYARVSAFTSWIAETRRSSFSDLD
In the case of B4, in [1] (other: E173A), the Km stood at 1000 µM, the kcat was 0.167 s⁻¹ and the kcat/Km was determined as 167 M⁻¹ s⁻¹. In series [2] (other: E173A), the Km amounted to 400 µM, the kcat came out at 0.0383 s⁻¹ and the kcat/Km came to 100 M⁻¹ s⁻¹. For the same protein, in series [3] (other: E173A), the Km turned out to be 1000 µM, the kcat was 0.153 s⁻¹ and the kcat/Km amounted to 150 M⁻¹ s⁻¹.

B5: medaka EP-1 enteropeptidase serine protease domain, wild type, SEQ ID NO: 2 (Oryzias latipes) (protein)
chain: VVGGVNAEKGAWPWMVSLHWRGRHGCGASLIGRDWLLTAAHCVYGKNTHLQYWSAVLGLHAQSSMNSQEVQIRQVDRIIINKNYNRRTKEADIAMMHLQQPVNFTEWVLPVCLASEDQHFPAGRRCFIAGWGRDAEGGSLPDILQEAEVPLVDQDECQRLLPEYTFTSSMLCAGYPEGGVDSCQGDSGGPLMCLEDARWTLIGVTSFGVGCGRPERPGAYARVSAFTSWIAETRRSSFSDLD
For the protein B5, in series [4], the Km worked out at 200 µM, the kcat worked out at 0.112 s⁻¹ and the kcat/Km worked out at 567 M⁻¹ s⁻¹. Moreover, in series [5], the Km was 100 µM, the kcat came to 0.0483 s⁻¹ and the kcat/Km turned out to be 483 M⁻¹ s⁻¹. In addition, in series [6], the Km was determined as 10000 µM, the kcat is 2.33 s⁻¹ and the kcat/Km turned out to be 233 M⁻¹ s⁻¹.

B6: porcine EP serine protease domain (Ile800 to His1034) (Sus scrofa) (protein)
chain: IVGGNDSREGAWPWVVALYYNGQLLCGASLVSRDWLVSAAHCVYGRNLEPSKWKAILGLHMTSNLTSPQIVTRLIDEIVINPHYNRRRKDSDIAMMHLEFKVNYTDYIQPICLPEENQVFPPGRICSIAGWGKVIYQGSPADILQEADVPLLSNEKCQQQMPEYNITENMMCAGYEEGGIDSCQGDSGGPLMCLENNRWLLAGVTSFGYQCALPNRPGVYARVPKFTEWIQSFLH
As for B6, in [7], the Km stood at 300 µM, the kcat was found to be 1.83 s⁻¹ and the kcat/Km was found to be 6170 M⁻¹ s⁻¹. In series [8], the Km amounted to 200 µM, the kcat came out at 0.917 s⁻¹ and the kcat/Km turned out to be 4670 M⁻¹ s⁻¹. In [9], the Km was determined as 3900 µM, the kcat was 5 s⁻¹ and the kcat/Km worked out at 1280 M⁻¹ s⁻¹.
